In assay [1] the target is 磷酸二(2-乙基己基)酯蛋白偶联物 (di(2-ethylhexyl) phosphate coupled to bovine serum albumin) (bovine (牛)) (UniProt P02769). Briefly: indirect ELISA, D-BSA coated on plate, antibody titrated, OD450; unit from the x axis of Figure 1. On the technique in general: An ELISA detects its analyte on a solid surface through an enzyme-linked reagent.
The target is the same in assay [2]. Description: indirect ELISA, D-BSA coated on plate, antibody titrated, OD450.

Sequence of UniProt P02769 (P02769 25-607 limits assumed, form in doubt): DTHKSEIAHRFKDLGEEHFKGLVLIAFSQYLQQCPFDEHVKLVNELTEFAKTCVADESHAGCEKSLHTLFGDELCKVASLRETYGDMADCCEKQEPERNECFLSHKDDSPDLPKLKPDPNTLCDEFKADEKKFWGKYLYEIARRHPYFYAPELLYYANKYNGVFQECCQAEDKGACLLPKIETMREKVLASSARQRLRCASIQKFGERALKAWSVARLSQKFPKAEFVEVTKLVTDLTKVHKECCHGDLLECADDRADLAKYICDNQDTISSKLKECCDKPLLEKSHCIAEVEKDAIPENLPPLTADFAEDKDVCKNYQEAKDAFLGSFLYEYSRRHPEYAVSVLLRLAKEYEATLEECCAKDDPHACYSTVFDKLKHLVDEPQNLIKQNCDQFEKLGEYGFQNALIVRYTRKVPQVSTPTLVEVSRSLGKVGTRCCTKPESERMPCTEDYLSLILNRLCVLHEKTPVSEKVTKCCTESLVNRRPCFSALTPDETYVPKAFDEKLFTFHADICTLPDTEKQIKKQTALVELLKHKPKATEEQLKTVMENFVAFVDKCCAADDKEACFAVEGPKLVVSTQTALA

B1: 磷酸二(2-乙基己基)酯单克隆抗体 (monoclonal antibody against di(2-ethylhexyl) phosphate, secreted by hybridoma cell line 2D5, CCTCC NO: C2021136) (antibody, V domains shown)
VH: QVQLQQSGAELVRPGSSVKISCKASGYAFSSYWMNWVKQRPGQGLEWIGQIYPGDGDTNYNGKFKGKATLTADKSSSTAYMQLSSLTSEDSAVYFCARSDYPWFVYWGQGTLVTVSA
VL: QIVLTQSPAIMSASPGEKVTISCSASSSVSYMYWYQQKPGSSPKPWIYRTSNLASGVPARFSGSGSGTSYSLTISSMEAEDAATYYCQQYHSYPWTFGGGTKLEIK
With B1, the C of the ELISA titer curve y=(A-D)/(1+(x/C)^B)+D (midpoint antibody concentration) in assay [1] is 62.4 ng/mL. Further, in assay [2], the A of the ELISA titer curve (lower asymptote, OD450) turned out to be 0.203 OD450 and the D of the ELISA titer curve (upper asymptote, OD450) came out at 2.19 OD450.

These data come from patent CN114317447A.
